Here are results for 1 molecule from patent US20230374458A1, “COMPOSITIONS AND METHODS FOR GENERATING HUMAN YOLK SAC-LIKE HEMATOPOIETIC CELLS” (UNIVERSITY HEALTH NETWORK, priority 2020, published 2023).

Experiment [1] deals with CHOPWT10 human iPSC line. In words: Induction of KDR+CD235a/b+ mesoderm from CHOPWT10 iPSCs (Activin A titration, flow cytometry). In kind it is cell-based. As to the method: (§1) hPSC differentiation to the hematopoietic lineage was performed in StemPro-34 media supplemented with penicillin/streptomycin (1%, ThermoFisher), L-glutamine (2 mM, ThermoFisher), ascorbic acid (50 μg/mL, Millipore Sigma), transferrin (150 μg/mL, ROCHE), monothioglycerol (50 μg/mL, Millipore Sigma) and other stage-specific factors for example as described below. Differentiation cultures were maintained in hypoxic conditions (37° C., 5% CO2, 5% O2) unless otherwise indicated. On day 0, hPSC cultures at 80-90% confluency were treated with TrypLE for 3 minutes at 37° C. Thereafter, the 80-90% of the TrypLE was aspirated and the cultures were incubated at 37° C. for an additional 2 minutes. […]
(§2) EBs prior to day 9 of differentiation, monolayer cultures and cultures aggregated after cell sorting were dissociated with Trypsin (Corning) for 5 minutes at 37° C. […] For fluorescence-activated cell sorting (FACS), cells were stained, sorted and collected in StemPro-34 media supplemented with penicillin/streptomycin (1%), L-glutamine (2 mM) and DNaseI. […] Thereafter, the sorted cells were counted and resuspended at 250,000 cells/mL in StemPro-34 media supplemented with recombinant factors appropriate for the day of differentiation. […]
On the technique in general: Flow cytometry measures light scatter and fluorescence of single cells or particles in a stream.

Experiment [2] relates to H1 human embryonic stem cell (hESC) line. In words: Induction of KDR+CD235a/b+ mesoderm from H1 hESCs (Activin A titration, flow cytometry). In kind it is cell-based. As to the method: as §1, §2

B1: Activin A: activin receptor agonist; human Activin A (Uniprot accession number: P08476), recombinant, from R&D Systems (protein, UniProt P08476 311-426, looked up)
Inhibin beta A chain: GLECDGKVNICCKKQFFVSFKDIGWNDWIIAPSGYHANYCEGECPSHIAGTSGSSLSFHSTVINHYRMRGHSPFANLKSCCVPTKLRPMSMLYYDDGQNIIKKDIQNMIVEECGCS
As to B1, the “proportion of KDR+CD235a/b+ cells” value is given as “greater than 30%” in experiment [1] (2 ng/mL Activin A, CHOPWT10 human iPSC line, day 4); “greater than 30%” in experiment [2] (6 ng/mL Activin A with 10 ng/mL BMP4 and 5 ng/mL FGF2, day 4 of differentiation, H1). For the same molecule, the “proportion of KDR+CD235a/b+ cells at day 4 of differentiation” value in experiment [1] (2 or 4 ng/mL Activin A within 0 to 10 ng/mL titration, with BMP4 10 ng/mL and FGF2 5 ng/mL, days 1 to 4) was “highest proportion”. Further, the “frequency of CD235a/b+ cells” value in experiment [2] (Activin A 0 to 10 ng/mL with BMP4 10 ng/mL and FGF2 5 ng/mL from day 1 of differentiation) is “increased in an Activin A dose-dependent manner and plateaued when its concentration exceeded 6 ng/mL”.
